# B1: hGIII sPLA2: novel human secreted group III phospholipase A2, SEQ ID No. 2, expressed recombinantly in COS cells and partially purified on Q-Sepharose (protein, listed as Homo sapiens)
# chain: MGVQAGLFGMLGFLGVALGGSPALRWYRTSCHLTKAVPGNPLGYLSFLAKDAQGLALIHARWDAHRRLQACSWEDEPELTAAYGALCAHETAWGSFIHTPGPELQRALATLQSQWEACRALEESPAGARKKRAAGQSGVPGGGHQREKRGWTMPGTLWCGVGDSAGNSSELGVFQGPDLCCREHDRCPQNISPLQYNYGIRNYRFHTISHCDCDTRFQQCLQNQHDSISDIVGVAFFNVLEIPCFVLEEQEACVAWYWWGGCRMYGTVPLARLQPRTFYNASWSSRATSPTPSSRSPAPPKPRQKQHLRKGPPHQKGSKRPSKANTTALQDPMVSPRLDVAPTGLQGPQGGLKPQGARWVCRSFRRHLDQCEHQIGPREIEFQLLNSAQEPLFHCNCTRRLARFLRLHSPPEVTNMLWELLGTTCFKLAPPLDCVEGKNCSRDPRAIRVSARHLRRLQQRRHQLQDKGTDERQPWPSEPLRGPMSFYNQCLQLTQAARRPDRQQKSWSQ
# Legend:
# [1] = pH-rate profile for the hydrolysis of phosphatidylcholine; type: biochemical, human; conditions: Q-Sepharose purified hGIII sPLA2
# Excerpt: (§1) FIG. 4 presents the enzymatic properties of hGIII sPLA2. A, Ca^2+ dependency of the hydrolysis of 1 -palmitoyl-2-(10-pyrenedecanoyl)-sn-glycerol-3- phosphomethanol vesicles by Q-sepharose purified hGIII sPLA2. B, pH dependency of the hydrolysis of phosphatidylcholne vesicles by Q-Sepharose purified gGIII sPLA2. Studies to measure the initial rate of hydrolysis of small unilamellar vesicles of phosphatidylglycerol (1-palmitoyl-2-([9,10[^3H])-palmitoyl-sn-glycero-3-phosphoglycerol in 1-palmitoyl-2-oleoyl-sn-glycero-3-phosphoglycerol at 50 Ci/mol) and phosphatidylcholine (1-palmitoyl-2-([9,10[^3H])-palmitoyl-sn-glycero-3-phosphocholine, 50 Ci/mol) were carried as described (8) using Q-Sepharose purified hGIII sPLA2. Initial rates were calculated from 3 time points in the linear portion of the product versus time curve. pH-rate profiles for the hydrolysis of phosphatidylcholine were obtained as described (8). The Ca^2+ dependency of phospholipid hydrolysis was carried out with the fluorimetric assay (described above) with 10 μM EGTA (no Ca^2+) or with CaCl2 in excess of EGTA to give 10-650 μM Ca^2+.
# [2] = Initial rate of hydrolysis of small unilamellar vesicles of phosphatidylglycerol and phosphatidylcholine; type: biochemical, human; conditions: Q-Sepharose purified hGIII sPLA2; data not shown
# Description: as §1, with “Studies” for “FIG. 4 presents the enzymatic properties of hGIII sPLA2. A, Ca^2+ dependency of the hydrolysis of 1 -palmitoyl-2-(10-pyrenedecanoyl)-sn-glycerol-3- phosphomethanol vesicles by Q-sepharose purified hGIII sPLA2. B, pH dependency of the hydrolysis of phosphatidylcholne vesicles by Q-Sepharose purified gGIII sPLA2. Studies”
molecule,measurement,setting,value
B1,pH of optimal activity on phosphatidylcholine vesicles,[1],8 pH
same,"Activity on anionic phosphatidylglycerol vesicles versus zwitterionic phosphatidylcholine vesicles, based on initial velocities",[2],11 fold

# From US6875599B2, “Mammalian secreted group III phospholipase A2” (Centre National de la Recherche Scientifique - CNRS, priority 2000, dated 2005)
